T1: MazE6 (UniProt P9WJ87 1-82)
T1 sequence: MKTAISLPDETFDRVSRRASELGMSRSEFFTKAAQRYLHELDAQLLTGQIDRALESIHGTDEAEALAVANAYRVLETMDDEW

B1: MazE6 antitoxin (residue 1-82) (natural protein)
chain: T1 sequence
B2: mazEF6 operator DNA (dsDNA)
DNA 1: CCGGTTATACTATCTGTA
DNA 2: TACAGATAGTATAACCGG

How the values were obtained:
[1] = biological target: the molecule itself; assay: SEC-MALS; MazE6 in solution; observed mol. wt. 17 kDa
MazE6 = biological target: T1, MazE6; assay: gel filtration; details: protein: recombinant; chain copies: 2; blunt

Binder	stoichiometry N [1]	binding result (MazE6)
B1	2	–
B2	–	binds
